# According to patent US20200164032A1 (WASHINGTON UNIVERSITY, published 2020):
# B1: R17 chemokine decoy receptor of Rodent herpesvirus Peru (RHVP), wild type, C-terminal 8-His fusion (receptor)
# chain: GPVGEPVASEINEASKVSSRLLTQDILFRKDRQATISLPIKLPVEDIITQTCDKITYGPLKFLDLLEKETAVLPLSTDITCPACLGRAVLVGKWECPAHVAVNESDLTVFGPNKEEHVPQFVTVQQPSDGKMQRLFFAKFLGTEESLAVLRVPGPDGHLCIQEALIHFKELSGAGVCSLWKANDSREEGLEMKQVDCLETTVLENQTCIATTLSKKIYHRLYCGERLMTGGQVSTRVLLTALGFYKRQPYTFHRVPKGMVYVHLIDSGSEDYMEYSECEEVTPGRYEDKQISYTFYTDLFQTADGEPVLASVWGTSGLKDSAYESCAFVIPTKGRRKLVPRRIMSKCYPFRLTYHPSTMTVRLDVRVEKHHGATDQGFVFLKMESGTYSEGREYYLDRVLWGEDSSTNNVLQ
# notes: not shown: C-terminal 8-His tag
# Key:
# human CCL2 = target: T1, human CCL2 (human, UniProt P13500 24-99); experiment: SPR saturation binding (KD,eq), R17 on CM5 chip
# T1 construct: also called hCCL2
# T1 sequence (P13500 24-99 limits assumed): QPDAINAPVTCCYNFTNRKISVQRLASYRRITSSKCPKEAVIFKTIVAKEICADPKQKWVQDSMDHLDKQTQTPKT
# human CCL3 = target: T2, human CCL3 (human, UniProt P10147 23-92); experiment: SPR saturation binding (KD,eq), R17 on CM5 chip
# T2 construct: also called hCCL3
# T2 sequence: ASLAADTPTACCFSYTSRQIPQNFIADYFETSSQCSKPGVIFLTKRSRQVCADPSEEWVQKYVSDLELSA
# [1] = target: CCL2 (species not given); experiment: SPR, R17 variant on CM5 chip; column KDeq (nM)
binder,measurement,setting,value
B1,Kd,human CCL2,12 nM
same,Kd,human CCL3,1.4 nM
same,Kd,[1],10 nM
